# Experimental data: publication PMC11480844 (2024)
# B1: H2-Kb / B15 (parent complex)
# chain 1: QQQVRQSPQSLTVWEGETAILNCSYENSAFDYFPWYQQFPGEGPALLISILSVSDKKEDGRFTIFFNKREKKLSLHIADSQPGDSATYFCAASAASNNRLTLGKGTQVVVLP
# chain 2: DSGVVQSPRHIIKEKGGRSVLTCIPISGHSNVVWYQQTLGKELKFLIQHYEKVERDKGFLPSRFSVQQFDDYHSEMNMSALELEDSAMYFCASSRRADAEQFFGPGTRLTVL
# chain 3: not shown
# chain 4: IQKTPQIQVYSRHPPENGKPNILNCYVTQFHPPHIEIQMLKNGKKIPKVEMSDMSFSKDWSFYILAHTEFTPTETDTYACRVKHDSMAEPKTVYWDRDM
# chain 5: SIINFEKL
# B2: H2-Kb / Ed9 (parent complex)
# chain 1: AQSVTQPDARVTVSEGASLQLRCKYSYFGTPYLFWYVQYPRQGLQLLLKYYPGDPVVQGVNGFEAEFSKSNSSFHLRKASVHWSDWAVYFCAVSITGGYKVVFGSGTRLLVSP
# chain 2: DSGVVQSPRHIIKEKGGRSVLTCIPISGHSNVVWYQQTLGKELKFLIQHYEKVERDKGFLPSRFSVQQFDDYHSEMNMSALELEDSAMYFCASSPRQSDYTFGSGTRLLVI
# chain 3: not shown
# chain 4: B1 chain 4
# chain 5: SIINFEKL
# Variants of: B1
# Assay: % of reporter cells activated (NFAT-GFP), raw
# Note: test concentration or dose not given here.
row,Variant,ratio to parent
1,chain 5 E6M,0.324
2,chain 5 E6R,0.221
3,chain 5 E6K,0.623
4,chain 5 E6T,0.132
5,chain 5 E6P,0.328
6,chain 5 E6C,0.47
7,chain 5 E6Q,0.41
8,chain 5 E6W,0.0482
9,chain 5 I2K,0.859
10,chain 5 I2A,0.958
11,chain 5 I2P,0.772
12,chain 5 F5H,0.944
13,chain 5 F5R,0.96

# Results, then the variant that gave them:
row,ratio to parent,Variant
1,0.382,chain 5 N4R
2,0.00661,chain 5 N4P
3,0.0905,chain 5 N4C
4,0.362,chain 5 I3G
5,0.599,chain 5 I3E
6,0.798,chain 5 I3V
7,0.339,chain 5 I3R
8,0.212,chain 5 K7Q
9,0.457,chain 5 K7G
10,0.836,chain 5 K7W
11,0.0871,chain 5 K7F
12,0.159,chain 5 K7L
13,0.759,chain 5 S1E
14,0.847,chain 5 S1A
15,0.977,chain 5 L8T
16,0.805,chain 5 L8W
17,0.793,chain 5 L8Y

# Variants of: B2
# Assay: % of reporter cells activated (NFAT-GFP), raw
row,Variant,ratio to parent
1,chain 5 F5H,1.29
2,chain 5 F5L,1.36
3,chain 5 F5V,1.27
4,chain 5 F5P,0.552
5,chain 5 F5K,1.09
6,chain 5 F5D,0.945
7,chain 5 F5I,1.14
8,chain 5 F5G,1.05
9,chain 5 F5M,1.32
10,chain 5 F5R,1.31
11,chain 5 F5C,1.26
12,chain 5 F5W,1.22
13,chain 5 F5Q,1.33
14,chain 5 F5T,1.38
15,chain 5 F5A,1.33
16,chain 5 E6K,0.795
17,chain 5 E6S,0.469
18,chain 5 E6L,0.0232
19,chain 5 E6D,0.85
20,chain 5 E6M,0.725
21,chain 5 E6V,0.409
22,chain 5 E6R,0.329
23,chain 5 E6H,0.73
24,chain 5 E6Q,0.646
25,chain 5 E6A,0.437
26,chain 5 E6I,0.449

row,Variant,ratio to parent
1,chain 5 E6F,0.0676
2,chain 5 E6C,0.0497
3,chain 5 E6N,0.203
4,chain 5 E6T,0.702
5,chain 5 E6G,0.597
6,chain 5 E6W,0.0935
7,chain 5 E6P,0.155
8,chain 5 I3C,0.633
9,chain 5 I2S,1.18
10,chain 5 I2V,1.32
11,chain 5 I2E,1.11
12,chain 5 I2A,1.21
13,chain 5 I2D,1.21
14,chain 5 I2L,1.31
15,chain 5 I2G,1.06
16,chain 5 I2W,0.799
17,chain 5 I2R,1.12
18,chain 5 I2H,0.854
19,chain 5 I2N,0.905
20,chain 5 I2C,1.22
21,chain 5 I2Y,0.858
22,chain 5 I2P,1
23,chain 5 I2K,1
24,chain 5 I2T,1.22
25,chain 5 I2M,1.18

# Continued, values first:
row,ratio to parent,Variant
1,0.56,chain 5 I3E
2,0.914,chain 5 I3M
3,0.336,chain 5 I3N
4,0.728,chain 5 I3Q
5,0.819,chain 5 I3P
6,0.0133,chain 5 I3F
7,0.484,chain 5 I3D
8,1.12,chain 5 I3V
9,0.753,chain 5 I3W
10,1.01,chain 5 I3S
11,1.17,chain 5 I3H
12,0.907,chain 5 I3K
13,0.43,chain 5 I3T
14,1.03,chain 5 I3L
15,0.385,chain 5 I3R
16,0.446,chain 5 I3G
17,0.802,chain 5 S1Y
18,0.0383,chain 5 S1N
19,0.543,chain 5 S1H
20,0.126,chain 5 S1W
21,0.381,chain 5 S1T
22,0.0362,chain 5 S1Q
23,0.0324,chain 5 S1L

row,ratio to parent,Variant
1,1.17,chain 5 S1A
2,0.245,chain 5 S1F
3,0.424,chain 5 S1K
4,0.147,chain 5 S1C
5,0.402,chain 5 S1R
6,0.0181,chain 5 S1M
7,0.224,chain 5 S1G
8,0.0209,chain 5 S1E
9,0.781,chain 5 K7W
10,0.332,chain 5 K7N
11,0.294,chain 5 K7D
12,0.723,chain 5 K7H
13,0.719,chain 5 K7L
14,0.919,chain 5 K7I
15,0.296,chain 5 K7F
16,0.432,chain 5 K7C
17,0.668,chain 5 K7Y
18,0.798,chain 5 K7Q
19,0.845,chain 5 K7V
20,0.47,chain 5 K7A
21,0.969,chain 5 K7S
22,0.525,chain 5 K7P
23,0.982,chain 5 K7R

row,ratio to parent,Variant
1,0.473,chain 5 K7G
2,0.0572,chain 5 N4Y
3,0.0443,chain 5 N4C
4,0.364,chain 5 N4K
5,0.127,chain 5 N4T
6,0.294,chain 5 N4H
7,0.00718,chain 5 N4M
8,0.832,chain 5 N4D
9,0.608,chain 5 N4L
10,0.572,chain 5 N4R
11,0.0561,chain 5 N4W
12,0.41,chain 5 N4I
13,0.0077,chain 5 N4G
14,0.892,chain 5 L8E
15,0.957,chain 5 L8C
16,0.803,chain 5 L8D
17,0.817,chain 5 L8P
18,1.18,chain 5 L8Q
19,1.08,chain 5 L8A
20,1.13,chain 5 L8R
21,0.958,chain 5 L8V
22,1.14,chain 5 L8M
23,1.16,chain 5 L8H
